The assay addresses T1, GDF8 growth factor dimer (human, UniProt O14793 267-375, disulfide-linked dimer).
T1 sequence (looked up): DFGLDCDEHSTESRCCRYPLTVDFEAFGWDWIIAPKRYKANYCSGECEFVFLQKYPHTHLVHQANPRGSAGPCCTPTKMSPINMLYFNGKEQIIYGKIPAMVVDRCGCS
Put plainly: HDX-MS.

B1: N-prodomain fragment of GDF8 (N-terminal 15 kDa TLD-cleaved prodomain fragment) (domain or fragment, human, UniProt O14793 24-98, looked up)
chain: NENSEQKENVEKEGLCNACTWRQNTKSSRIEAIKIQILSKLRLETAPNISKDVIRQLLPKAPPLRELIDQYDVQR
modifications: predicted N-linked glycan attachment site (printed as Asn-71 in the text, Asn48 in Figure 1A)
As for B1, the binding result is given as “binds”.

The record behind these values is doi:10.1101/154823 (bioRxiv, 2017).
